Patent US20160222130A1 (Astellas, published 2016)

Assays:
Human Tie2 (1-452)A4-Fc = target: T1, Human Tie2 (1-452)A4-Fc (human, UniProt Q02763 23-452); experiment: ELISA; Tie2-Fc coated at 1 ug/mL; signal at 100 ng/mL antibody vs convergence value on the parent
T1 construct: range 1-452
Experimental: (§1) The next day, the immobilized solution was removed, and the plate was washed with a TBS-T solution, and incubated for 60 minutes by the addition of 50 μL of a Blocker™ Casein in TBS (Thermo Fisher Scientific Inc., 37532) to perform blocking. The resultant was washed with a TBS-T solution, and TIE-1-Igγ1-LALA, diluted with 0.05% Tween 20 (Nacalai Tesque Inc., 28353-85)—containing Blocker™ Casein in TBS from 0.03 ng/mL to 100 ng/mL through eight steps, was added thereto in the amount of 20 μL per well. The resultant was incubated at room temperature for 90 minutes and then washed with a TBS-T solution three times, and 20 μL of a biotin-labeled anti-human kappa light chain antibody, which had been diluted to 0.1 μg/mL with 0.05% Tween 20-containing Blocker™ Casein in TBS, was added thereto. The resultant was incubated at room temperature for 60 minutes and then washed with a TBS-T solution three times, and 20 μL of alkaline phosphatase-labeled streptavidin, which had been diluted to 0.1 μg/mL with 0.05% Tween 20-containing Blocker™ Casein in TBS, was added thereto. The resultant was incubated at room temperature for 60 minutes and then washed with a TBS-T solution three times, and 50 μL of Chemiluminescent Ultra Sensitive AP Microwell and/or Membrane Substrate (450 nm), which had been 5-fold diluted with 1 mM MgCl₂-containing 20 mM TBS (pH 9.8) as a substrate, was added thereto. The resultant was incubated at room temperature under light-shielding for 40 minutes, and then luminescent intensity thereof was measured with an EnVision™ multi-label counter. The EC₅₀ value of TIE-1-Igγ1-LALA with respect to the human Tie2 (1-452)-Fc chimeric protein and 23 mutant proteins thereof were calculated. The relative value of luminescent intensity of 100 ng/mL TIE-1-Igγ1-LALA as maximum concentration point with respect to human Tie2 (1-452)-Fc chimeric protein and 23 mutant proteins thereof when the convergence value of the sigmoid curve of TIE-1-Igγ1-LALA binding to the human Tie2 (1-452)-Fc chimeric protein which was taken as 100% was calculated (Table 8 and Table 9). Further, the EC₅₀ value and the convergence value were calculated by Sigmoid-Emax model non-linear regression analysis.

Human Tie2 (1-452)A6-Fc = target: T2, Human Tie2 (1-452)A6-Fc (human, UniProt Q02763 23-452); experiment: as above
T2 construct: range 1-452
Experimental: as §1

Human Tie2 (1-452)A5-Fc = target: T3, Human Tie2 (1-452)A5-Fc (human, UniProt Q02763 23-452); experiment: as above
T3 construct: range 1-452
Experimental: as §1

Human Tie2 (1-452)A3-Fc = target: T4, Human Tie2 (1-452)A3-Fc (human, UniProt Q02763 23-452); experiment: as above
T4 construct: range 1-452
Experimental: as §1

[1] = target: T5, human Tie2 (1-452)-Fc chimeric protein (human, UniProt Q02763 23-452); experiment: ELISA; Tie2-Fc coated at 1 ug/mL, chemiluminescence
T5 construct: range 1-452; The stated range 1-452 begins at residue 1 of the precursor
Experimental: as §1

Human Tie2 (1-452)g3-Fc = target: T6, Human Tie2 (1-452)g3-Fc (human, UniProt Q02763 23-452); experiment: as above
T6 construct: range 1-452
Experimental: as §1

Human Tie2 (1-452)g1-Fc = target: T7, Human Tie2 (1-452)g1-Fc (human, UniProt Q02763 23-452); experiment: as above
T7 construct: range 1-452
Experimental: as §1

Human Tie2 (1-452)r1-Fc = target: T8, Human Tie2 (1-452)r1-Fc (human, UniProt Q02763 23-452); experiment: as above
T8 construct: range 1-452
Experimental: as §1

Human Tie2 (1-452)r2-Fc = target: T9, Human Tie2 (1-452)r2-Fc (human, UniProt Q02763 23-452); experiment: as above
T9 construct: range 1-452
Experimental: as §1

Human Tie2 (1-452)c1-Fc = target: T10, Human Tie2 (1-452)c1-Fc (human, UniProt Q02763 23-452); experiment: as above
T10 construct: range 1-452
Experimental: as §1

Human Tie2 (1-452)g5-Fc = target: T11, Human Tie2 (1-452)g5-Fc (human, UniProt Q02763 23-452); experiment: as above
T11 construct: range 1-452
Experimental: as §1

Human Tie2 (1-452)g6-Fc = target: T12, Human Tie2 (1-452)g6-Fc (human, UniProt Q02763 23-452); experiment: as above
T12 construct: range 1-452
Experimental: as §1

Human Tie2 (1-452)y1-Fc = target: T13, Human Tie2 (1-452)y1-Fc (human, UniProt Q02763 23-452); experiment: as above
T13 construct: range 1-452
Experimental: as §1

Human Tie2 (1-452)r5-Fc = target: T14, Human Tie2 (1-452)r5-Fc (human, UniProt Q02763 23-452); experiment: as above
T14 construct: range 1-452
Experimental: as §1

Human Tie2 (1-452)r3-Fc = target: T15, Human Tie2 (1-452)r3-Fc (human, UniProt Q02763 23-452); experiment: as above
T15 construct: range 1-452
Experimental: as §1

Human Tie2 (1-452)r7-Fc = target: T16, Human Tie2 (1-452)r7-Fc (human, UniProt Q02763 23-452); experiment: as above
T16 construct: range 1-452
Experimental: as §1

Human Tie2 (1-452)m3-Fc = target: T17, Human Tie2 (1-452)m3-Fc (human, UniProt Q02763 23-452); experiment: as above
T17 construct: range 1-452
Experimental: as §1

Human Tie2 (1-452)r6-Fc = target: T18, Human Tie2 (1-452)r6-Fc (human, UniProt Q02763 23-452); experiment: as above
T18 construct: range 1-452
Experimental: as §1

Human Tie2 (1-452)g2-Fc = target: T19, Human Tie2 (1-452)g2-Fc (human, UniProt Q02763 23-452); experiment: as above
T19 construct: range 1-452
Experimental: as §1

T2 sequence (Q02763 other isoform, or with tags, fused parts or gaps limits assumed, form in doubt): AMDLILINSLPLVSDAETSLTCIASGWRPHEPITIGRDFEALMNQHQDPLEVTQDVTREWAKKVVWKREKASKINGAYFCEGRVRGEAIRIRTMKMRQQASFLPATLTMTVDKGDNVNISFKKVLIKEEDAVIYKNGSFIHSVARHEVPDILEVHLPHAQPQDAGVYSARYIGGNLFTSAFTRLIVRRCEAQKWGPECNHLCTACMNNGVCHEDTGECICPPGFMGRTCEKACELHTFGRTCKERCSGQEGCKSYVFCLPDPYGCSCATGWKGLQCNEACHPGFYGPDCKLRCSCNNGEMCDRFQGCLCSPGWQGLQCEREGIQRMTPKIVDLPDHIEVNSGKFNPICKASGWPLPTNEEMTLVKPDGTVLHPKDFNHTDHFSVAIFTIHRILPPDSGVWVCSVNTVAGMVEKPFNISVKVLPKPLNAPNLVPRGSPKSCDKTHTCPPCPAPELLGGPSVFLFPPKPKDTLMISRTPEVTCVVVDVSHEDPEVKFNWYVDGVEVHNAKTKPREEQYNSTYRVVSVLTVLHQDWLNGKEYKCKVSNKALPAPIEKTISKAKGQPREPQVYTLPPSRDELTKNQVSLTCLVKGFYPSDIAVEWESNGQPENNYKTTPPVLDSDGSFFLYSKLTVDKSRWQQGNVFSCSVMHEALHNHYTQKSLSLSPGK
T14 sequence (Q02763 other isoform, or with tags, fused parts or gaps limits assumed, form in doubt): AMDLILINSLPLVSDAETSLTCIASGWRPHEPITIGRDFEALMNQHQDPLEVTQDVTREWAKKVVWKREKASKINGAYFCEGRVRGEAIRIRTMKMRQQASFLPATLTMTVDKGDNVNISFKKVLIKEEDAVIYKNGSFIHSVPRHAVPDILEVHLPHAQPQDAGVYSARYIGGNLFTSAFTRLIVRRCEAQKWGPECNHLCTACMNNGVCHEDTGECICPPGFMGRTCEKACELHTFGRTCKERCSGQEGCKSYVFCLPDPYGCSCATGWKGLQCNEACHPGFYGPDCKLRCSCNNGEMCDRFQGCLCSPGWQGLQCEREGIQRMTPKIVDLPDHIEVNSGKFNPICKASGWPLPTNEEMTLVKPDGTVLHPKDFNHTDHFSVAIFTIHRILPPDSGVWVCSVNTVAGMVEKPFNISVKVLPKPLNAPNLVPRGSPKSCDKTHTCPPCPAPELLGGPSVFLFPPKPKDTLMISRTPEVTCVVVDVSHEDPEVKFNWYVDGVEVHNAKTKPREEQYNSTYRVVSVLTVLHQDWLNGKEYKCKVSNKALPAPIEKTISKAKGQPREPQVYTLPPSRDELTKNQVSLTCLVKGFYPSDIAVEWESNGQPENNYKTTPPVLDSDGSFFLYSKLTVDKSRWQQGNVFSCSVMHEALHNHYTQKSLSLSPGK
T12 sequence (Q02763 other isoform, or with tags, fused parts or gaps limits assumed, form in doubt): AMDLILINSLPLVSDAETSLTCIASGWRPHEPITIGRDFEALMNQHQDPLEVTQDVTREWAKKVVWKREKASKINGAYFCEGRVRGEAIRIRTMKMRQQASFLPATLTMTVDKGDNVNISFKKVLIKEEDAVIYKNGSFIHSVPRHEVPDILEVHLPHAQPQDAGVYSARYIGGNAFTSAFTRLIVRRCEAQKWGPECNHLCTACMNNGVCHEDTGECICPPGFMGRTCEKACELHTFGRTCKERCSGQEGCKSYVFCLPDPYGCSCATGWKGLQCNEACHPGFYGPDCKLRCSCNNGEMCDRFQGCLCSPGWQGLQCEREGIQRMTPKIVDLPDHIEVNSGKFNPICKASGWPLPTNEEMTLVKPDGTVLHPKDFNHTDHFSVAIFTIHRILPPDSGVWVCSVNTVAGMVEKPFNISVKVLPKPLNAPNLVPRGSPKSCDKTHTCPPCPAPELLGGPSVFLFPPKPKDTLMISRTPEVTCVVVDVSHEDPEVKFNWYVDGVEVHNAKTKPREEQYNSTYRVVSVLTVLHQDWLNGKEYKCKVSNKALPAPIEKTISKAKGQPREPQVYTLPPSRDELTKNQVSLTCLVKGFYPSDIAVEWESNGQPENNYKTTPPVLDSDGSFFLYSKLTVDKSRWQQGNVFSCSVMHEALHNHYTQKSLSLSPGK
T17 sequence (Q02763 other isoform, or with tags, fused parts or gaps limits assumed, form in doubt): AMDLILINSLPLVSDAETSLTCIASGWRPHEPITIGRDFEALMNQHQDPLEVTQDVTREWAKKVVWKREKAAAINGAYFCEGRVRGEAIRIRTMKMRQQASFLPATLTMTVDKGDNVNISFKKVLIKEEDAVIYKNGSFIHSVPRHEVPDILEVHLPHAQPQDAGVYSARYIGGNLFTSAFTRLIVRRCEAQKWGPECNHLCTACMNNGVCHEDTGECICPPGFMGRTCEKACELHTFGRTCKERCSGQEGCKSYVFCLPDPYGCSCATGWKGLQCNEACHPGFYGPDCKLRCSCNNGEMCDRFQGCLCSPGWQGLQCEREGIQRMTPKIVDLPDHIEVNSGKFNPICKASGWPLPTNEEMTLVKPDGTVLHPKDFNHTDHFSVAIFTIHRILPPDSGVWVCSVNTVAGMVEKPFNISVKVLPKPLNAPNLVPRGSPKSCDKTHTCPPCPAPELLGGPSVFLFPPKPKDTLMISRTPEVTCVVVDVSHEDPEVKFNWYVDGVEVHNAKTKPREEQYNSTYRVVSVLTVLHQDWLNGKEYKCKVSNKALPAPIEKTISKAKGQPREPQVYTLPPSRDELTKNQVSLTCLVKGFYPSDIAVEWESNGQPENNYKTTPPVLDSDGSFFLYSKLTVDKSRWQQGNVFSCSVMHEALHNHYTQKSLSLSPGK
T6 sequence (Q02763 other isoform, or with tags, fused parts or gaps limits assumed, form in doubt): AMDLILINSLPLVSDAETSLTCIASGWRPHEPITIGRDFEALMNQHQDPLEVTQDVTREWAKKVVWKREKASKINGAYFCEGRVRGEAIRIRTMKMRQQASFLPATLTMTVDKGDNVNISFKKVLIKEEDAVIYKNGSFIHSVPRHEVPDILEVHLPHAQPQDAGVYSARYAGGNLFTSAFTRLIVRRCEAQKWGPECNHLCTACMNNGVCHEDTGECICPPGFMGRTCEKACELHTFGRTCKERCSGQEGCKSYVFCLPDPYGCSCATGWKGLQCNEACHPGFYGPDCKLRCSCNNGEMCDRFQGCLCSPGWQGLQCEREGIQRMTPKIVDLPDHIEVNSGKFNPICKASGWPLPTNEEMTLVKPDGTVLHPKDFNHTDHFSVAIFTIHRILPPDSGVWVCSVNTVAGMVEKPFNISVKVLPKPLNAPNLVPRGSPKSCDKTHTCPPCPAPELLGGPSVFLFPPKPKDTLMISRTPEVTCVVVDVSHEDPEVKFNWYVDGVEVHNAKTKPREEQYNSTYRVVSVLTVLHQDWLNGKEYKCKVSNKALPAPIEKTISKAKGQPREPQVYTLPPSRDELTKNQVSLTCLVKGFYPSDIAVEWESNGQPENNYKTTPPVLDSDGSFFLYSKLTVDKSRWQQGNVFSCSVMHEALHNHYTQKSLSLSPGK
T19 sequence (Q02763 other isoform, or with tags, fused parts or gaps limits assumed, form in doubt): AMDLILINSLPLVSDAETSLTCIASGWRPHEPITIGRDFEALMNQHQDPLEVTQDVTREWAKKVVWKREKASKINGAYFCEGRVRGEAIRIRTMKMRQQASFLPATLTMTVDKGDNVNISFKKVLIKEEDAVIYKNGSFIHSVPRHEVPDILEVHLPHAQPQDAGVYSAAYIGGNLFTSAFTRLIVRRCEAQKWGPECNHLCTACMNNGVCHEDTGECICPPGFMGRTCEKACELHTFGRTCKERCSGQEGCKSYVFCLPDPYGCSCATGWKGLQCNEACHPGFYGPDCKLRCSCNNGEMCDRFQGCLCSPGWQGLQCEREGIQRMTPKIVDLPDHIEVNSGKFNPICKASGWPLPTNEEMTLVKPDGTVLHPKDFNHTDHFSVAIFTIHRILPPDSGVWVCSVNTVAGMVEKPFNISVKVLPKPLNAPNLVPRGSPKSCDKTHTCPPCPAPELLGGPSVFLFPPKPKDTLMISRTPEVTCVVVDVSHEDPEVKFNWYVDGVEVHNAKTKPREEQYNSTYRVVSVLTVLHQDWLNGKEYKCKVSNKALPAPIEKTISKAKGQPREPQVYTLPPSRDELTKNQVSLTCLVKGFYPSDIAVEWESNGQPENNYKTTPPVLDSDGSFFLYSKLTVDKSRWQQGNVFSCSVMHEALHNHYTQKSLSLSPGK

- Relative value (%) of luminescent intensity (Human Tie2 (1-452)A4-Fc): 100%
- Relative value (%) of luminescent intensity (Human Tie2 (1-452)A6-Fc): 99%
- Relative value (%) of luminescent intensity (Human Tie2 (1-452)A5-Fc): 98%
- Relative value (%) of luminescent intensity (Human Tie2 (1-452)A3-Fc): 98%
- EC50 [1]: 1.1 ng/mL
- EC50 (Human Tie2 (1-452)g3-Fc): 1.1 ng/mL
- EC50 (Human Tie2 (1-452)g1-Fc): 12.3 ng/mL
- EC50 (Human Tie2 (1-452)r1-Fc): 1.1 ng/mL
- EC50 (Human Tie2 (1-452)r2-Fc): 0.9 ng/mL
- EC50 (Human Tie2 (1-452)c1-Fc): 1 ng/mL
- EC50 (Human Tie2 (1-452)g5-Fc): 2.2 ng/mL
- EC50 (Human Tie2 (1-452)g6-Fc): 1.3 ng/mL
- EC50 (Human Tie2 (1-452)y1-Fc): 1 ng/mL
- EC50 (Human Tie2 (1-452)r5-Fc): 1 ng/mL
- EC50 (Human Tie2 (1-452)r3-Fc): 1 ng/mL
- EC50 (Human Tie2 (1-452)r7-Fc): 1.1 ng/mL
- EC50 (Human Tie2 (1-452)m3-Fc): 1 ng/mL
- EC50 (Human Tie2 (1-452)r6-Fc): 1 ng/mL
- EC50 (Human Tie2 (1-452)g2-Fc): 5.5 ng/mL
B1: TIE-1-Igγ1-LALA (antibody, human IgG1, kappa, L234A L235A)
heavy: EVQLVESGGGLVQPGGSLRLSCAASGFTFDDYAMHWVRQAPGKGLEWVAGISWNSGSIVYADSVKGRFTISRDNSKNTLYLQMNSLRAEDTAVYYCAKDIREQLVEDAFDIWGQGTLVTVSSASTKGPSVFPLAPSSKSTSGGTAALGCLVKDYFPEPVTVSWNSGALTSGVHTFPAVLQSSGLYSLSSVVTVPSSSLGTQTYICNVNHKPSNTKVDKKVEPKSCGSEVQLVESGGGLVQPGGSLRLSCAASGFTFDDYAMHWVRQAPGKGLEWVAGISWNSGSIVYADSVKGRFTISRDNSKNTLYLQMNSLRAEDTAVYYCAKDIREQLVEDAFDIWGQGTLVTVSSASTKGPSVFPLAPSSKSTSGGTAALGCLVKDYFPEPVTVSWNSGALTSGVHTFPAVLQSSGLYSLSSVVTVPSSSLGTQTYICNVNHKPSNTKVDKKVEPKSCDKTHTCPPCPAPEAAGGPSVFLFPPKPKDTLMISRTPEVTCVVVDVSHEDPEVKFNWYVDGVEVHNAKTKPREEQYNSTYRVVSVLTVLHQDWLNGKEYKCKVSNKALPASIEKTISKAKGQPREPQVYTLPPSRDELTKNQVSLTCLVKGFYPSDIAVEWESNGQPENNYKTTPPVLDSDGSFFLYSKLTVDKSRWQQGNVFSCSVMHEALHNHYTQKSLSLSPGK
light: DIQMTQSPSSLSASVGDRVTITCRSSQSLLHSHRYNYLDWYQQKPGKAPKLLIYLGSNRASGVPSRFSGSGSGTDFTLTISSVQPEDFATYYCMQTLQTPLTFGQGTKVEIKRTVAAPSVFIFPPSDEQLKSGTASVVCLLNNFYPREAKVQWKVDNALQSGNSQESVTEQDSKDSTYSLSSTLTLSKADYEKHKVYACEVTHQGLSSPVTKSFNRGEC
notes: Tandem tetravalent format: two heavy chains (VH-CH1-linker-VH-CH1-CH2-CH3) and four light chains; also called tetravalent anti-human Tie2 antibody with L234A, L235A and P331S
